# Values quoted from earlier work, collected in patent publication US6100293A, “Tetracyclic triterpene derivatives with immunosuppressant activity” (Merck & Co., Inc., priority 1998, dated 2000).
# Biological target: T1, Kv 1.3 channels (Homo sapiens, UniProt P22001)
# T1 construct: expressed in transfected cells; host or cells: CHO cells
# Details: reference peptide used at saturating concentration to set the efflux window; read-out: IC50 (blocker of Kv 1.3 channels)
# T1 sequence (P22001 whole entry): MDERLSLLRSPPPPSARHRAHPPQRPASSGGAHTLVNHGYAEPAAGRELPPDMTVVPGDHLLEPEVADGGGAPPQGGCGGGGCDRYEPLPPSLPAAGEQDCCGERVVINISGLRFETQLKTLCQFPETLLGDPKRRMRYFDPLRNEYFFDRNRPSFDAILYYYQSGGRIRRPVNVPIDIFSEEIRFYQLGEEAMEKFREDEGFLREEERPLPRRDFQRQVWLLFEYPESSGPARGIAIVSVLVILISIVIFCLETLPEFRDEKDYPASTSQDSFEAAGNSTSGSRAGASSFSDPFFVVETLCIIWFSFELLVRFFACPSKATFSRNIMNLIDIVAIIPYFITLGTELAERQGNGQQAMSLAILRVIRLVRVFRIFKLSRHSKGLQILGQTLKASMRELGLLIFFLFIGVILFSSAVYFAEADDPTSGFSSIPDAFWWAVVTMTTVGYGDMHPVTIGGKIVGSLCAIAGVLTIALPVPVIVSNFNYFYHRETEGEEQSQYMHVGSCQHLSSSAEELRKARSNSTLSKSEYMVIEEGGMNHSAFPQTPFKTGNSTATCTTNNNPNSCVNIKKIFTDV
substance,measurement,value
"margatoxin (TIINVKCTSPKQCLPPCKAQFGQSAGAKCMNGKCKCYPH; UniProt P40755 1-39, looked up)",IC50,0.1 nM
